Source: publication PMC3386289, “Isolation of Human Mitotic Protein Phosphatase Complexes: Identification of a Complex between Protein Phosphatase 1 and the RNA Helicase Ddx21” (PLoS ONE, 2012)

Biological target: T1, His6-Ddx21_(motif2) (human, UniProt Q9NR30 1-783, motif2 (aa440–444) -RTIIF- to -RTAIA-)
T1 construct: Site-directed mutagenesis of pRSET-A-DDX21; also called mut2; (aa440–444: motif2); source: E. coli DH5α, purified (SP-Sepharose, Ni-NTA)
T1 sequence (looked up): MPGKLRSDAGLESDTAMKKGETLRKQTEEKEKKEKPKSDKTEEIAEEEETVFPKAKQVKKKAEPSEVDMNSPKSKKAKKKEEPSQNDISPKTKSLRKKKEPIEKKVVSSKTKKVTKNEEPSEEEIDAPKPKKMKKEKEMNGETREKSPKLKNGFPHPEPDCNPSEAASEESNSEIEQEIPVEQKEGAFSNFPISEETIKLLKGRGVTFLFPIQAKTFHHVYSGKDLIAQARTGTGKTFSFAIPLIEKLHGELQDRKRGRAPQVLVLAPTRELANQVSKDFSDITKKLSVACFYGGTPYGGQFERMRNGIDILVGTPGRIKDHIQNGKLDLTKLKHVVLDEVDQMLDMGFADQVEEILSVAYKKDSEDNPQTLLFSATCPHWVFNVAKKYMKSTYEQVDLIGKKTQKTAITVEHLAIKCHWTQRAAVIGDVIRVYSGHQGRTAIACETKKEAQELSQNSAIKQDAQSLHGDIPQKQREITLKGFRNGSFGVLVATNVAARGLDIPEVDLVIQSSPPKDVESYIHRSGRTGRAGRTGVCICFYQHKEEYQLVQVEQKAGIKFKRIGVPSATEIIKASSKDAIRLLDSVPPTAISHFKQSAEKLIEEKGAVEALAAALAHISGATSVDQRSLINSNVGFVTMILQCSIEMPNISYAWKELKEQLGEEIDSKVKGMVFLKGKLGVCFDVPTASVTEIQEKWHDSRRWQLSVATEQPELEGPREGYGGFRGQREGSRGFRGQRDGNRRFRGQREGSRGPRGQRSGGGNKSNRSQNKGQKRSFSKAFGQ
Experiment: pull-down; 300 ng PP1 and 200 ng His6-Ddx21 in 25 mM Tris pH 7.5, 5% glycerol, 150 mM NaCl, 0.5% Igepal630, 10 mM imidazole, 4°C; Ni-NTA beads; wash 450 mM NaCl, 0.5% Tween-20 (γ: 500 mM NaCl, 0.75% Tween-20); western blot
Conditions: both partners purified

B1: PP1β, bacterially expressed and purified (enzyme, human, UniProt P62140 1-327, looked up)
chain: MADGELNVDSLITRLLEVRGCRPGKIVQMTEAEVRGLCIKSREIFLSQPILLELEAPLKICGDIHGQYTDLLRLFEYGGFPPEANYLFLGDYVDRGKQSLETICLLLAYKIKYPENFFLLRGNHECASINRIYGFYDECKRRFNIKLWKTFTDCFNCLPIAAIVDEKIFCCHGGLSPDLQSMEQIRRIMRPTDVPDTGLLCDLLWSDPDKDVQGWGENDRGVSFTFGADVVSKFLNRHDLDLICRAHQVVEDGYEFFAKRQLVTLFSAPNYCGEFDNAGGMMSVDETLMCSFQILKPSEKKAKYQYGGLNSGRPVTPPRTANPPKKR
notes: Protein phosphatase 1 catalytic subunit, isoform β, human; also called protein phosphatase 1 beta
binding result: binds
